Reference: the nanobody polyreactivity screen of Harvey et al. (2022)

Assay: yeast display, Sf9 membrane polyspecificity reagent, FACS + sequencing; frameworks hold sequencing errors
Summary of the method: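 A nanobody's polyreactivity label depends on the gate it was sorted from. Yeast display cells were stained with 10% biotinylated, detergent-solubilized Sf9 membrane reagent for 1 hour at 4 °C, enriched on streptavidin microbeads and sorted by FACS. The low and high (top ~1%) gates were set on anti-HA fluorescence for expression and streptavidin fluorescence for reagent binding.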
In the case of “QVQLVESGGGLVQAGGSLRLSCAASGSIFYRYAMGWYRQAPGKERELFATITQSGVSTYYADSVKGRFTISRDNAKNTVFLQRISLKPEDTAVYYCAASYYYTIGPYLRKFDWGQGTQVTVSS”, the “polyreactivity (PSR sort gate)” value is reported as “low polyreactivity”.
With “QDQLGESGGGLVQAGGSLRLSCAASGSTFYAYAMGWYRQAPGKERELVATISWSGGSTYADCVKGRFTISRDNAKNTVYLQMNSLKPEDTPVYYCNAAGAFYPTQVHPGYTLWSYDYWGQGTQVTVSS” the “polyreactivity (PSR sort gate)” value was “low polyreactivity”.
In the case of “QVQLVESGGGLVQAGGSLRLSCAASGRTLTQNAMGWYRQAPGKERELVATISWTAGSTYYADSVKGRFTISRDNAKNTVYLQMNSLKPEDTAVYYCAAVVFYSIYDYWGQGTQVTVSS”, the “polyreactivity (PSR sort gate)” value is reported as “low polyreactivity”.
With “QVQLVESGGGLVQAGGSLRLSCAASGSTFDSNVMGWYRQAHGKERELLAAINYSGVRTYYADSVKGRFTISRDNAKNTVYLQMNSLKPEDTAVYYCNARLFSYRYPEGGYWGQGTQVTVSS” the “polyreactivity (PSR sort gate)” value was “high polyreactivity”.
In the case of “QVQLVESCGGLVQAGGSLRLSCAASGRNIWDYGMVWYRQAPGKERELVAVITWGGGSTYYADSVKGRFTISRDNAMNTVYLQMNSLKPEDSAVYYCAKEYHYYYWGQGTQVTVSS”, the “polyreactivity (PSR sort gate)” value is reported as “low polyreactivity”.
In the case of “QVQLVESGGGLVQAGGSLRLSCAASGRTFAYYAMGWYRQAPGKERELVAAITLRSGSTYYADSVKGRFTISRDNAKNTVYLQMNSLKPEDTAVYYCATDSLGVDRPNYNYWGQGTQVTVSS”, the “polyreactivity (PSR sort gate)” value is reported as “low polyreactivity”.
For “QVQLVESGGGLVQAGGSLRLSCAASGRIFSRYAMGWYRQAPGKERELVAAISRRGGSTYYADSVKGRFTISRDNAKNTVYLQMNSLKPEDTAVYYCAADFSPYYDLATEISDYWGQGTQVTVSS”, the “polyreactivity (PSR sort gate)” value was “high polyreactivity”.
In the case of “QVQLVESGGGLVQAGGSLRLSCAASGFTFYTYVMGWYRQAPGKERELVAAISGRGGSTYYADSVKGRFTISRDNAKNTVYLQMNSLKPEDTAVYYCATVRSYSRVVGYDYWGQGTQVTVSS”, the “polyreactivity (PSR sort gate)” value is reported as “high polyreactivity”.
For “QVQLVESGGGLVQAGGSLRLSCAASGITFVHYAMGWYRQAPGKERELVAAISSGGGSTYYADSVKGRFTISRDNAKNTVYLQMNSLKPGVTAVYYCAAYVLPYGEYDYWGQGTQVTVSS”, the “polyreactivity (PSR sort gate)” value was “low polyreactivity”.
With “QVQVVESGGGLVQAGGSLRLSCAASGYIFDYYAMGWYRQAPGKERELVAAISSSGGTTYYADSVKGRFTISRDNAKNTVYLQMNSLKPEDTAVYYCAADAVLPRSDYWGQGTQVTVSS” the “polyreactivity (PSR sort gate)” value was “high polyreactivity”.
In the case of “QVQLVESGGGLVQAGGSLRLSCAASGQTFGGYAMGWYRQAPGKERELVAAITKRGGNTDYADSVKGRFTISRDKAKNTVYLQMTSLKPEDTAVYYCAASRAVGFGYWGQGTQVTVSS”, the “polyreactivity (PSR sort gate)” value is reported as “high polyreactivity”.
With “QVHLVESGGGLVQAGGSLRLSCAASGRTFYGNAMGWYRQATGKERELVAAINRDGGTYYADSVKGRFTISRDNAKNTVYLQMNSLKTEDTAVYYCNAVKRGIRYGYWGQGTQVTVSS” the “polyreactivity (PSR sort gate)” value was “high polyreactivity”.
With “QVQLVESGGGLVQAGGSLRLSCAASGRIFGTYTMGWYRQAPGKERELVASIRFGGSTYYADSVKGRFTISRDNAKNSVYLQMNSLKPEDTAVYYCNRVYGYNRRYGYWGQGTQVTVSS” the “polyreactivity (PSR sort gate)” value was “high polyreactivity”.
For “QVQLVESGGGLVQAGGSLRLRCDASGRIFISYTMGWSRPPPGKERELVAGIDSSGTSTYYADSVKGRFTISRDNAKNTVYLLMNSLKPEDNADYYCNVDGYWKDTSTEMVYWGQGTQVTVSS”, the “polyreactivity (PSR sort gate)” value was “low polyreactivity”.
In the case of “QVQLVESGGGLVQAGGSLRLSCAASGLTFVTYVMGWYRPAPGKERELVAAISYSGGSTYYADSVKGRFTISRDNAKNTVYLQMNSLKPEDTAVYYCAAEWYGYQEDDYWGQGTQVTVSS”, the “polyreactivity (PSR sort gate)” value is reported as “low polyreactivity”.
For “QVQLVESGGGLEQAGGSLRLSCAASGRTLPIYAMGWYIQAPGKERELVAAISWSGASTYADSVKGRFTISRDNAKNTVYLQMTSLKPEETAVYYCAAYYVYWYSSYGYGYWGQGTQVTVSS”, the “polyreactivity (PSR sort gate)” value was “low polyreactivity”.
In the case of “QVQLVESGGGVVQAGGSLSLSCAASGFNFNYYAMGWYRPAPGKERELVAISRGGTTNYADSVKGRFTISRDNAKNTVYLQMNSLKPEDTAVYYCAVTGTYYGYSWQSRYKYDYWGQGTQVTVSS”, the “polyreactivity (PSR sort gate)” value is reported as “high polyreactivity”.
For “QVQLVESGGGLVQAGGSLRLSCAASGRTFSDYAMGWYRQAPGKERELVAAITSSGGSTYYADSVKGRFTISRDNAKNTVYLQMNSLKPEDTAVYYCAKVWYGDRNIDRYDYWGQGTQVTVSS”, the “polyreactivity (PSR sort gate)” value was “high polyreactivity”.
For “QVQLVESGGGLVQAGGSLRLSCAASGSTIDYYAMGWYRQAPGKERELVAAIDWSGDSTYYADSVKGRFTISRDNAKNTVYLQMNSLKPEDTAVYYCAADLDSRGTYGRYEYWGQGTQVTVSS”, the “polyreactivity (PSR sort gate)” value was “low polyreactivity”.
With “QVQLVESGGRLVQAGGSLRLSCAASGFIFEDYAMGWYRQAPGKERELVAAITWRGGSTYYADSVKGRFTISRDHAKTTVYLQMNSLKPEDTAVYYCAAEDYWGWRDYWGQGTQVTVSS” the “polyreactivity (PSR sort gate)” value was “high polyreactivity”.
In the case of “QVQLVESGGGLVQAGGSLRLSCAASGSIFEYYAMGWYRQAPGKERELVAAISSGGPTYYADSVKGRFTISRDNAKNTVYLQMNSLKPEDTAVYYCNADLWYPDYDYWGQGTQLTVSS”, the “polyreactivity (PSR sort gate)” value is reported as “low polyreactivity”.
In the case of “QVKLVESGGGLVQAGGSLRISCAASGRTFGYNAMGWYRQAPGKERELVAGISGRTASTYYADSVKGRFTISRDNAKNTVYLQMNSLKPVDTEVYYCATQFGSIYRYDYWGQGTEVTVSS”, the “polyreactivity (PSR sort gate)” value is reported as “high polyreactivity”.
In the case of “QVQLVESGGGLVQAGGSLRLSCAASGSTFLYYAMGWYRQAPGKERELVARITTRVGRTYYADSVKGRFTISRDNAKNTVYLQMNSLKPEDTAVYYCATGGSKEMDYWGQGTQVTVSS”, the “polyreactivity (PSR sort gate)” value is reported as “high polyreactivity”.
With “QVQLVESGGGLVQAGGSLRLSCAASGITFLVNAMGWYRQAPGKERELVATITSGDSTSYADSVKGRFTISRDNAKNTVYLQMNSLKPEDTAVYFCAARPGYWAQYYPVGSRNYYWGQGTQVTVSS” the “polyreactivity (PSR sort gate)” value was “low polyreactivity”.
With “QVQLVDSGGGLVQAGGSLRLSCAASGRTYDTNAMGWNRQAPRKETELVAVITARGGNTSYADSVKGRFTISRDNAKNTVYLQMNSLKPEDTAVYYCAALYFKVGYYTYEYWGQGTQVTVSS” the “polyreactivity (PSR sort gate)” value was “low polyreactivity”.
In the case of “QVQLVESGGGLVQAGGSLRLSCAASGSILFKNAMGWYRQAPGKERELVAAISTSGGRTYYADSVKGRFTISRDNAKNTVYLEMNSLKPEDTAVYYCAAVYPRQVSQVWRDDYWGQGTQVTVSS”, the “polyreactivity (PSR sort gate)” value is reported as “high polyreactivity”.
For “QVQLVESGGGLVQAGGSLRLSCAASGSTFTKNVMGWYRQAPGKERELVAAISSGGRTNYADSVKGRFTISRDNAKNTVYLQMNSLKPEDTAVYYCAADVGYFKSDYWGQGTQVTVSS”, the “polyreactivity (PSR sort gate)” value was “low polyreactivity”.
In the case of “QVQLVESGGGLVQAGGSLRLSCAASGFTFASNGRGGYRQAPGKERELVAVIDWSDDSTYYADSVKGRFTISRDNAKNTVYLQMNSLKPEDTAVYYCNADDWWGGYDYWGQGTQVTVSS”, the “polyreactivity (PSR sort gate)” value is reported as “low polyreactivity”.
With “QVQLVESGGGLVQAGGSLRLSCAASGFTFGGYAMGWYRQAPGKERELVAAIDSSGGRTYYADSVKGRFTISRDNAKNTVYLQMNSLKPEDTAVYYCNAGNSGWWRYDYDYWGQGTQVTVSS” the “polyreactivity (PSR sort gate)” value was “high polyreactivity”.
In the case of “QVQLVESGGGLVQAGGSLRLSCAASGSIFPHYAMGWYRQAPGKERELVAAISRSGTSTYYADSVKGRFTISRDNAKNTVYLQMNSLKPEDTAVYYCAAGYWFSYSRVTRYDYWGQGTQVTVSS”, the “polyreactivity (PSR sort gate)” value is reported as “high polyreactivity”.
For “QVQLVESGGGLVQAGGSLRISCAASGSTYRKYTMGWYRQAPGNERDLVATISWSGGSTNYADSVKGRFTISRDNAKTIVYLQMISLKPDDTAVYYCNAYVSPRYRGSRYYYWGQGTQVTVSS”, the “polyreactivity (PSR sort gate)” value was “high polyreactivity”.
With “QVQLVESGGGLVQAGGSLRLSCAASGLTFQNNAMGRSRQAPGKERELVAVITRIGGSTYYADSVKGRFTISRDNAKNTVYLQLNSLKPEDTAVYYCAVRRRYTPGYDYWGQGTQVTVSS” the “polyreactivity (PSR sort gate)” value was “high polyreactivity”.
For “QVQHVESGGGLVQEGGRLRLSCAASGITFGANTMGWSRQAPGKERELVAAITISGGITHYADSVKGRFTISRDNAKNTVYLQMNSLKPEDTAVYYCAAGAYWRLYPYRLRNVGRMYYWGQGTQVTVSS”, the “polyreactivity (PSR sort gate)” value was “low polyreactivity”.
For “QVQLVESGGGLVQAGGSLRLSCAASGRTFFVYAMGWYRQAPGKERELVAAISRGGRTYYADSVKGRFTISRDNAKNTVYLQMNSLKPEDTAVYYCAAESWYQQGDYWGQGTQVTVSS”, the “polyreactivity (PSR sort gate)” value was “low polyreactivity”.
With “QVQLVDSGGGLVQAGGSLRLSCAASGGILKCYYMGRYRQATGKEMEFVSPITWSAGSTYYADSVKGRFTISRDNAKNTVYLQMNSLKPEDTAVHYCNVDWYPRGPHTVVFYDVSPYDYWGQGTQVTVSS” the “polyreactivity (PSR sort gate)” value was “high polyreactivity”.
With “QVQLVESGGVLVQAGGSLRISCAASGIIFSYYAMGWYRQAPGKERELVAAIYRRGTSTYYADSVKGRFTISRDNAKNTVYLQMNSLKPEDTAVYYCNKSPYYTVWSTRCNQFSRFYYWGQGTQVTVSS” the “polyreactivity (PSR sort gate)” value was “high polyreactivity”.
For “QVQLVESGGGLVQAGGSLRLSCAASGSIFITYAMGWYRQAPGKERELVAAIRDSGDRTYYADSVKGRFTISRDNAKNTVYLQMNSLKPEDTAVYFCNARWQEPLKYDYWGQGTQVTVSS”, the “polyreactivity (PSR sort gate)” value was “low polyreactivity”.
In the case of “QVQLVESGGGLVQAGGSLRLSCAASGFIFYKYAMGWYRQAPGKERELVAAISRSGSTYYADSVKGRFTISRDNAKNTVYLQMNSLKPDDTAVYYCNALTYFKRSEYYWGQGTQVTVSS”, the “polyreactivity (PSR sort gate)” value is reported as “high polyreactivity”.
In the case of “QVQLVESGGGLVQAGGSLRLSCAASGSTFVYNAMGWYRQAPGKERELVAGISSSGGRTYYADSVKGRFTISRDNAKNTVYLQMNSLKPEDTAVYYCNVVTYRRFDYWGQGTQVTVSS”, the “polyreactivity (PSR sort gate)” value is reported as “low polyreactivity”.
In the case of “QVQLVESGGGLVQAGGSLRLSCAASGFIFVLYAMGWYRQAPRKERELVAAISRGGSSTYYADSVKGRFTISRDNAKNTVYLQMNSLKPEATAVYYCAARIRNWPAMDYWGQGTQVTVSS”, the “polyreactivity (PSR sort gate)” value is reported as “high polyreactivity”.
In the case of “QVQLVESGGGLVQAGGSLRLSCAASGRIFRYYAMGWYRQAPGKERELVASITRRGGSTYYADSVKGRFTISRDNAKNTVYLQMNSLKPEDTAVYYCAADTYYNLGNYWGQGTQVTVSS”, the “polyreactivity (PSR sort gate)” value is reported as “high polyreactivity”.
In the case of “QVQLVESGGGLVQAGGSLRLSCAASGFIFASYAMGWYRQAPGKERELVAAISWRGGSTYYADSVKGRFTISRDNAKNTVYLQMNSLKPEDTAVYYCKAYVYVGTGRGYDTLDYWGQGTQVTVSS”, the “polyreactivity (PSR sort gate)” value is reported as “low polyreactivity”.
In the case of “QVQLVESGGGLVQAGGSLRLSCAASGRTFTRYAMGLYRQAPGKERELVAGITGRAGSTYYADSVKGRFTISRDNAKNTVYLQMNSLKPEDTAVYYCAADAGYRRSSLYEYDYWGHGTQVTVSS”, the “polyreactivity (PSR sort gate)” value is reported as “low polyreactivity”.
